Test results from patent US9637543B2, “HER3 antibodies and uses thereof” (THE UAB RESEARCH FOUNDATION, priority 2011, dated 2017).
“Also recorded” adds a separate entry of the source.

How the values were obtained:
[1] = target: T1, HER3 (extracellular domain) (Homo sapiens, UniProt P21860); assay: ELISA binding specificity on recombinant soluble EGFR, HER2, HER3; settings: plate coated with 1 μg/ml recombinant soluble EGFR, HER2 or HER3 extracellular domain
T1 construct: recombinant soluble EGFR, HER2, or the extracellular domain of HER3
Protocol: (§1) The average OD values of triplicates are presented. The values for egFR are superimposed on the values for HER2. […] EGFR, HER2 or HER3-transfected SP 2/0 cells were stained with 1 μg/ml of purified antibody, followed by PE-goat anti-mouse IgG.
(§2) An ELISA plate was coated with 1 μg/ml of recombinant soluble EGFR, HER2, or the extracellular domain of HER3.

[2] = target: T2, HER3-transfected SP 2/0 cells (Homo sapiens, UniProt P21860); assay: Flow cytometry binding specificity on transfected SP 2/0 cells; settings: EGFR, HER2 or HER3 transfected SP2/0 cells, 1 μg/ml purified antibody
T2 construct: expressed in transfected cells; host or cells: SP 2/0 cells
Protocol: as §1, §2

recombinant soluble HER3 [3] = target: T3, recombinant soluble HER3 (Homo sapiens, UniProt P21860); assay: ELISA for blocking of NRG1 binding to HER3; settings: 100 ng/ml biotin-conjugated NRG1, increasing antibody concentrations
T3 construct: coated with 1 μg/ml of recombinant soluble HER3
Text: (§3) The binding of NRG1 to HER3 (vertical axis) was detected by HRP-streptavidin. […] NRG1 binding was detected by PE-streptavidin. The mean fluorescent intensities (MFI) of NRG1 bound are presented.
(§4) The binding of NRG1 to HER3 was detected by HRP-streptavidin. […] Thus, the 1A5 antibody is herein referred to as a ligand-independent antibody. […] Thus, the 3D4 antibody is herein referred to as a ligand-dependent antibody. […] NRG1 binding was detected by PE-streptavidin.

[4] = target: T2, HER3-transfected SP 2/0 cells; assay: Flow cytometry for blocking of NRG1 binding to HER3; settings: 100 ng/ml biotin-conjugated NRG1, increasing antibody concentrations
Text: as §3, §4

recombinant soluble HER3 [5] = target: T3, recombinant soluble HER3; assay: Sandwich ELISA for epitopes (1A5 capture, HRP-3D4 detection); type: binding; settings: plate coated with 2 μg/ml 1A5, 200 ng/ml HRP-conjugated 3D4
Protocol: An ELISA plate was coated with 2 μg/ml of purified 1A5 and then incubated with indicated concentrations of recombinant soluble HER3 in the presence of 200 ng/ml HRP-conjugated 3D4. The binding of 3D4 to HER3 was detected by chemiluminescence substrate. The average counts per second of triplicates are presented.
An ELISA plate was coated with 2 μg/ml of purified 1A5 and then incubated with increasing concentrations of HER3 in the presence of 200 ng/ml HRP-conjugated 3D4. The binding of 3D4 antibody to HER3 was detected by chemiluminescence.

[6] = tested on: A549 human lung cancer xenograft; assay: A549 human lung cancer xenograft model; type: in vivo
HER2 [7] = target: T4, HER2 (Homo sapiens, UniProt P04626); assay: NRG1-induced phosphorylation of HER2 in pancreatic cancer cell lines; type: cell-based; set-up: endogenous in cells
HER3 [8] = target: T5, HER3 (Homo sapiens, UniProt P21860); assay: HER3 tyrosine phosphorylation ELISA, antibodies with or without tyrosine kinase inhibitor; type: cell-based; set-up: endogenous in cells; host or cells: N87; tyrosine phosphorylation of HER3: dose or concentration left out as unconfirmed; settings: 24 hours; for tyrosine phosphorylation levels of HER3: 20 μg/ml antibody
HER2 [9] = target: T4, HER2; assay: HER2 tyrosine phosphorylation ELISA, antibodies with or without lapatinib; type: cell-based; set-up: endogenous in cells; host or cells: N87 gastric cancer cells; ZR75-30 breast cancer cells; settings: 24 hours, without lapatinib
EGFR = EGFR (Homo sapiens, UniProt P00533); assay: EGFR tyrosine phosphorylation ELISA, antibodies with or without tyrosine kinase inhibitor; settings: 24 hours
HER3 [10] = target: T5, HER3; assay: NRG1-induced phosphorylation of HER3 in pancreatic cancer cell lines; type: cell-based; set-up: endogenous in cells; host or cells: N87, BT474, ZR75-30, Panc 2.03, A549 and a panel of human cancer cell lines
HER3 [11] = target: T5, HER3; assay: Functional screen for inhibition of ligand-induced HER3 activation; type: cell-based; set-up: endogenous in cells; host or cells: N87, BT474, ZR75-30, Panc 2.03, A549 and a panel of human cancer cell lines; settings: human cancer cell lines
Text: Another HER3 antibody was generated by immunizing mice with human HER3 expressing SP 2/0 cells. […] Thus, the 3D4 antibody is a ligand-dependent antibody.

T3 sequence (P21860 20-643 limits assumed): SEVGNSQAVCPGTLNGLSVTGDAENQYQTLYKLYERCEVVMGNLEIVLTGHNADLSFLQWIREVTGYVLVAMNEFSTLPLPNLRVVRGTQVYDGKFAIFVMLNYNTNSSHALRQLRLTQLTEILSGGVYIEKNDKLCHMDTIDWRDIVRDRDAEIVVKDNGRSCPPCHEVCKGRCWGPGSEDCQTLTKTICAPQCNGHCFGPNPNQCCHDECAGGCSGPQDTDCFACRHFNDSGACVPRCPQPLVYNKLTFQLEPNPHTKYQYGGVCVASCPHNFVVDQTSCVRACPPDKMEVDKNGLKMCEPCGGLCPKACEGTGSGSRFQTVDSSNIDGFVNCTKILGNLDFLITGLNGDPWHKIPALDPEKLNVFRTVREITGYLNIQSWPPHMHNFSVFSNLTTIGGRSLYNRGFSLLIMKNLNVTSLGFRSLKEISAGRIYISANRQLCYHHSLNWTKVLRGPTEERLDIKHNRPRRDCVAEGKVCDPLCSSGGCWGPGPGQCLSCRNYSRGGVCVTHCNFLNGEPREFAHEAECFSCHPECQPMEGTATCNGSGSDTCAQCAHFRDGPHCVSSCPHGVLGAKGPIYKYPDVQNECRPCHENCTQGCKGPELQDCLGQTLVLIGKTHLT
T2 sequence (P21860 20-1342): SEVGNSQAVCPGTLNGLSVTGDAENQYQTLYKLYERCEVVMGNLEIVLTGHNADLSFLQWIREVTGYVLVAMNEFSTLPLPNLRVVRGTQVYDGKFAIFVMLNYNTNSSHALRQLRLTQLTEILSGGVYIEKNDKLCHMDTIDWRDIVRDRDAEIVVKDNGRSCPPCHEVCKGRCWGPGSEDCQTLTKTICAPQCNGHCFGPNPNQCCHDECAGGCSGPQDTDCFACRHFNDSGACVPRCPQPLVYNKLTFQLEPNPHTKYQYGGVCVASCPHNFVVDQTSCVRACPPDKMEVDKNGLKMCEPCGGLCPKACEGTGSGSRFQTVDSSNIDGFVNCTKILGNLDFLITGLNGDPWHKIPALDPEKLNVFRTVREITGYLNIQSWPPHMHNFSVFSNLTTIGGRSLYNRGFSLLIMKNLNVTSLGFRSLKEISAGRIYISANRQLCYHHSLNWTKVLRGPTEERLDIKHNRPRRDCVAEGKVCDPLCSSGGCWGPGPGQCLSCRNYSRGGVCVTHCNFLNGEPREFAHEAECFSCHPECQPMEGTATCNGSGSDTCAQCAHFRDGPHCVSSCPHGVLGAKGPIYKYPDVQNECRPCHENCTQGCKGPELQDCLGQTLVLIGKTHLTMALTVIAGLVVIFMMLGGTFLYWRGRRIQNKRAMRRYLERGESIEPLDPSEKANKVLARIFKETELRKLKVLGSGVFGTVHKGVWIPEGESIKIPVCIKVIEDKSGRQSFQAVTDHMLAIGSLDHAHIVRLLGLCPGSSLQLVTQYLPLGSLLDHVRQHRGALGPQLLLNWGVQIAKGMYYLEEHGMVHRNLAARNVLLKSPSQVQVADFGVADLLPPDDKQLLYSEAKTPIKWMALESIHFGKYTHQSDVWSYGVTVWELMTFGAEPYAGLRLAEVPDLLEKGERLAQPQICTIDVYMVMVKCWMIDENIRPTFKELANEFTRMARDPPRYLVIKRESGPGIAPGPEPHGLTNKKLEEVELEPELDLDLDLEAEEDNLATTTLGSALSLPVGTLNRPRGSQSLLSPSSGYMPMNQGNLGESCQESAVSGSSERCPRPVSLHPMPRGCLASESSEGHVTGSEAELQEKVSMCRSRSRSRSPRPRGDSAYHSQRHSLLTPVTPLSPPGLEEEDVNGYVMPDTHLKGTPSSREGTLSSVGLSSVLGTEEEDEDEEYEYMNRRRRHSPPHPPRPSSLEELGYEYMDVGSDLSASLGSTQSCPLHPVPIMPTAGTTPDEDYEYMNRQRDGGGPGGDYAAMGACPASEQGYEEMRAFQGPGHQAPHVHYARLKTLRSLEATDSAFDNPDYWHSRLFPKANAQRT
T5 sequence (P21860 20-1342): as above
T1 sequence (P21860 20-643 limits assumed): as the sequence (P21860 20-643 limits assumed) above

B1: 3D4: ligand-dependent HER3 antibody; light chain variable region SEQ ID NO:9, heavy chain variable region SEQ ID NO:10 (antibody, V domains shown)
VH: MGWSRIFLFLLSIIAGVHCQVQLQQSGPELVKPGASVRISCKASGYTFTNYFLHWMKQRPGQGLEWIGWIYPGNVNTKYSEKFKGKATLTADKSSSTAYMQLSSLTSEDSAVYFCARSTYYSMDYWGQGTSVTVSS
VL: METDTLLLWVLLLWVPGSTGDIVLTQSPASLAVSLGQRATISCRASESVDSYGNSFMNWYQQKPGQPPKVLIYRASNLESGIPARFSGSGSRTDFTLTITPVEADDVATYYCQQSYEDPPTFGGGTKLEIK
[1]
  binding specificity by ELISA: specifically bind HER3; also recorded: specific binding
[2]
  binding specificity by flow cytometry: specifically bind HER3
Recombinant soluble HER3 [3]
  blocking of NRG1 binding to HER3 (ELISA): inhibited binding of NRG1 to HER3; also recorded: blocks ligand binding to HER3
[4]
  blocking of NRG1 binding to HER3 (flow cytometry): blocked NRG1 binding to HER3; also recorded: blocks ligand binding to HER2
Recombinant soluble HER3 [5]
  epitopes of HER3 bound: bind different epitopes of HER3; also recorded: recognize different epitopes on HER3
[6]; antibodies without Erbitux
  tumor volume: reduced tumor volume
[6]; in combination with Erbitux
  tumor volume: reduced tumor volume more than administration of Erbitux alone
HER2 [7]
  NRG1-induced phosphorylation of HER2: inhibited NRG1-induced phosphorylation of HER2; also recorded: inhibited NRG-1-induced phosphorylation of HER2
HER3 [8]; A549 cells, 20 μg/ml antibody with 100 nM Erlotinib
  tyrosine phosphorylation levels of HER3, effect of adding Erlotinib: enhanced
HER3 [8]; A549 cells, without Erlotinib
  tyrosine phosphorylation levels of HER3: reduced the tyrosine-phosphorylation levels of HER3
HER3 [8]; N87 cells, without lapatinib
  tyrosine phosphorylation of HER3: reduced the tyrosine phosphorylation of HER3
HER3 [8]; N87 cells, with 100 nM lapatinib
  tyrosine phosphorylation of HER3, effect of adding lapatinib: enhanced
HER3 [8]; ZR75-30 cells, 20 μg/ml antibody with 100 nM lapatinib
  tyrosine phosphorylation levels of HER3, effect of adding lapatinib: enhanced
HER3 [8]; ZR75-30 cells, without lapatinib
  tyrosine phosphorylation levels of HER3: reduced the tyrosine phosphorylation levels of HER3
HER2 [9]; N87 cells
  tyrosine phosphorylation level of HER2: did not affect the level of tyrosine phosphorylation for EGFR or HER2
HER2 [9]; ZR75-30 cells, 20 μg/ml antibody
  tyrosine phosphorylation levels of HER2: did not affect tyrosine phosphorylation levels of HER2
EGFR; A549 cells, 20 μg/ml antibody, without Erlotinib
  tyrosine phosphorylation levels of EGFR: did not affect tyrosine phosphorylation levels of EGFR
EGFR; N87 cells, 20 mg/ml antibody, without lapatinib
  tyrosine phosphorylation level of EGFR: did not affect the level of tyrosine phosphorylation for EGFR or HER2
HER3 [10]
  NRG1-induced phosphorylation of HER3: inhibited NRG1-induced phosphorylation of HER3; also recorded: inhibited NRG-1 induced phosphorylation of HER3
HER3 [11]
  inhibition of ligand-induced HER3 activation: ability to inhibit ligand-induced HER3 activation in human cancer cells lines
